This is an account of results in patent publication US11376333B2, “mTG substrates for covalent conjugation of compounds” (COVALAB, priority 2013, dated 2022).

Test [1] concerns the target T1, microbial transglutaminase (mTG) (Streptomyces mobaraensis, UniProt P81453).
T1 construct: purchased Covalab, France opr 0054
T1 sequence (P81453 77-407): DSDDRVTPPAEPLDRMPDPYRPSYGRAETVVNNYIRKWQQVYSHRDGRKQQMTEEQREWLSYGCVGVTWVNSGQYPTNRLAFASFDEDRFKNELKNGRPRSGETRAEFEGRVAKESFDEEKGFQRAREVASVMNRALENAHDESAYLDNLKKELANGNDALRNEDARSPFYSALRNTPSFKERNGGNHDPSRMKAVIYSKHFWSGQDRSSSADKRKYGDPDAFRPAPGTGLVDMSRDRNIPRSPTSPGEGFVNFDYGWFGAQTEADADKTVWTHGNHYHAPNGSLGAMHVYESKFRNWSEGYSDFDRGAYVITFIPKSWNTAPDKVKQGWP
Nature of the test: mTG-mediated incorporation of biotin-X-cadaverine into peptides coupled on Covabtest plate. Conditions: 15 nmoles peptide coupled to plate, biot-cad 0.1 mg/ml, mTG 10 ng/well. Format: biochemical. On the procedure: The coupling method was previously described by the Applicant (V. Thomas et al, 2004) and also in the corresponding data sheet of CovAbtest-Plate™ which is commercially available from Covalab (Ref #opr0004). Briefly, in separate tubes a solution mixture containing 150 μM of each peptide dissolved in 10 mM phosphate buffer pH5, 5 mM EDAC and 5 mM NHS was incubated for 30 min under gentle shaking. The resulting activated NHS-carboxyl C-terminal moiety of each peptide (15 nmoles) was used to be conjugated in each well of CovAbtest-Plate™ previously deprotonated during 15 min with 150 μl 0.6% sodium bicarbonate per well. The microtiter plate was then incubated during 2 hrs at room temperature and washed extensively with Tris Buffer Saline.
For this experiment we used the same procedures described by V Thomas et all (2004) and also in the Covalab's commercialized kit (opr0033). Briefly the Lyophilized transglutaminase was reconstituted in 40 mM tris buffer pH 8 and 50 μl of each mTG at 200 ng/ml and at 40 ng/ml were added in the wells containing 50 μl of biotin-X-cadaverine. The enzymatic mixture was incubated for 15 min at room temperature under gentle shaking. Then the plates were washed 3 times with TBS-Tween20 followed by the addition of 100 μl of diluted HRP labeled streptavidine ( 1/2000 in TBS Tween20, 0.5% BSA) in each well. After 30 min at room temperature and 3 washings in TBS-Tween20, 100 μL of TMB substrate were added and after 5 min the colour development was stopped using 100 μl of 0.5 M sulfuric acid. Absorbances at 450 nm were measured using a microplate reader (Multiskan, Labsystems, Helsinki, Finland).
To screen the peptide library (Covalab) and identify the putative new substrates of mTG we used Covabtest-peptide (described in B-I-1) in which the peptides were covalently coupled into the plates and the amine substrate Biotin-cadeverine (biot-cad) was free in solution. In this experiment 15 nmoles of each peptide (table 2) were covalently conjugated to microtiter plate and the incorporation of biot-cad (0.1 mg/ml) catalyzed by mTG (10 ng/well) was determined following the experiment described in B-II-1. Among all the peptides tested only few peptides were recognized by mTG as Gln (Q) donor to incorporate biot-cad as shown in the FIG. 1. The enzymatic activity was different between the peptide substrates. […] When Q is replaced by N (peptide HH12N11) no reactivity of the mTG was observed confirming the specificity of the enzyme to Gln donor. Moreover, if the reactivity of the 4 peptides (HH12Q11, DH6Q7, HG14Q11 and WG10Q7) is compared, it can be observed that the reactivity of the Gln depends on its position in the peptide sequence. In the most reactive peptides Q is located at the C-terminal. […]

Test [2] deals with T1, microbial transglutaminase (mTG). Description: mTG incorporation of biot-cad into coated BSA-peptide conjugate, with free-peptide competition. Format: biochemical. The settings on record: 150 μM free peptide, mTG 100 ng/ml. On the procedure: 2 mg of each peptide was dissolved in 1 ml of deionized water and 150 nmoles were mixed with 0.5 mg BSA solubilized in 50 mM bicarbonate buffer pH9.5. After shaking, glutaraldehyde was added at a final concentration of 0.25% (v/v). The mixtures were kept at room temperature during 16 hrs under gentle shaking. At the end of this incubation time, sodium borohydride was added at a final concentration of 10 mg/ml to stabilize the cross-linking between BSA and the peptides. After 2 hours each mixture of peptide-BSA was dialyzed separately in PBS to remove any free peptides.
High binding 96 wells-microtiter plates (Costar) were used to immobilize BSA-peptide and to human IgG-peptide conjugates prepared as described in M-4 and M-5. For these experiments, conjugates were prepared at 50 μg/ml in 50 mM sodium carbonate buffer pH 9 and 100 μl of each solution was dispensed in the number of wells needed for the experiment. After overnight incubation at 4° C., the plates were washed extensively with Tris Buffer Saline (TBS) and were ready to be used for TG activity.
The same procedure was used as described in B-II-1
In the literature its well known that many proteins are not substrate of transglutaminase even if many glutamine residues are present in their structures (Gorman J J, Folk J E. J Biol Chem. 1984 Jul. 25; 259(14):9007-10). […]

As to HDLMWPDVYSQH (Peptide HH12Q11), in test [1], the “reactivity as Gln donor for mTG incorporation of biot-cad” value is reported as “good substrate for mTG”. Also, the “effect of added free peptide on mTG reactivity on BSA-HH12Q11” value in test [2] is listed as “decreased”.
